According to article PMC4938799, “LD Motif Recognition by Talin: Structure of the Talin-DLC1 Complex” (Structure(London, England:1993), 2016):

Columns and labels:
[1] = test system: A549 human non-small cell lung cancer line; experiment: G418 (monolayer) colony growth assay; type: cell-based; conditions: transfected A549, G418 for 3 weeks; mean over three experiments
Description: (§1) Figure 6 Talin R8 Mutations Disrupt the Interaction with DLC1 and Affect Its Biological Activity (A) Wild-type GST-talin fragments pull down more DLC1 than the 2E mutants. Extracts of HEK293T cells transfected with GFP-DLC1 and GST-talin constructs were subjected to pull-down assays with glutathione beads followed by immunoblotting with anti-GST and anti-DLC1 on the same membrane (top). The transfected GFP-DLC1 in each sample is shown by the anti-DLC1 blot (bottom) as a loading control. (B) Wild-type GST-talin fragments compete efficiently with endogenous talin to form a complex with DLC1. The supernatants collected after pull-down assay from (A) were reused for co-immunoprecipitation with an anti-talin antibody and blotted with anti-DLC1 (top). A small aliquot from each lane was blotted for endogenous talin as a loading control (bottom). (C) Co-expression of GST or GST-talin fragments (wild-type or 2E mutant) with GFP DLC1 in A549 cells. […] Transfected A549 cells were cultured in G418 for 3 weeks, and colonies counted and quantitated (top). […] Transfected A549 cells were grown for 3 weeks in soft agar, and colonies counted and quantitated (top). […] Lysates from migrated cells were quantitated (top), and representative microscopic images of the migrated cells are shown (bottom). […]

[2] = test system: A549 human non-small cell lung cancer line; experiment: Transwell cell migration assay; type: cell-based; conditions: transfected A549, transwell, 24 h; mean over three experiments
Description: as §1

B1: GST-R8: GST-tagged talin R8, amino acids 1,453–1,580 (protein)
chain: NSQAGQQGLVEPTQFARANQAIQMACQSLGEPGCTQAQVLSAATIVAKHTSALCNSCRLASARTANPTAKRQFVQSAKEVANSTANLVKTIKALDGDFTEENRAQCRAATAPLLEAVDNLSAFASNPE
modifications: left off: GST, end not stated, kept
colony growth [1]: no detectable biological activity
cell migration [2]: no detectable biological activity
